Assay results taken from publication PMC7076203.

Target: WT APP (amyloid precursor protein) stably expressed in H4-APPwt cells (human) (UniProt P05067)
Sequence (P05067 18-770): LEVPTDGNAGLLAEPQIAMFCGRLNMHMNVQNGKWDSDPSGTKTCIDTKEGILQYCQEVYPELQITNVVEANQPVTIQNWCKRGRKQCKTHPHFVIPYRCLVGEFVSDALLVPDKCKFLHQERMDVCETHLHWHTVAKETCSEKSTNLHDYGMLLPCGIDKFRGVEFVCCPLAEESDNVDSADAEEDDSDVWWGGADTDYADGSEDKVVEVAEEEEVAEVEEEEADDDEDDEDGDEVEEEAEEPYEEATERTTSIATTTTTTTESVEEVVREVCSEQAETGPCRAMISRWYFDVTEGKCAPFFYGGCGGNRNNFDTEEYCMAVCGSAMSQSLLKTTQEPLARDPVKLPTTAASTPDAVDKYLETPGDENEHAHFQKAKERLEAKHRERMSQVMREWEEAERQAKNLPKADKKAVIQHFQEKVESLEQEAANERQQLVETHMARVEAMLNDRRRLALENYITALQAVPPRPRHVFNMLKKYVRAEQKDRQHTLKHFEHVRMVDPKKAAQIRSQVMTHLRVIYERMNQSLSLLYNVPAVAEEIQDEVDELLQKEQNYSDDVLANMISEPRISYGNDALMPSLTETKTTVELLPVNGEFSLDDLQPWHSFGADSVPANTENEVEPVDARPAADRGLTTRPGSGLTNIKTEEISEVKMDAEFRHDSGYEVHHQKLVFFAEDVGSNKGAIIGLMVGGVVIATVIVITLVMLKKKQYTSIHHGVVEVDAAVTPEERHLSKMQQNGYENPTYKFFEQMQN

Sequence of GAL3BP (preparation not stated) (Q08380 19-585): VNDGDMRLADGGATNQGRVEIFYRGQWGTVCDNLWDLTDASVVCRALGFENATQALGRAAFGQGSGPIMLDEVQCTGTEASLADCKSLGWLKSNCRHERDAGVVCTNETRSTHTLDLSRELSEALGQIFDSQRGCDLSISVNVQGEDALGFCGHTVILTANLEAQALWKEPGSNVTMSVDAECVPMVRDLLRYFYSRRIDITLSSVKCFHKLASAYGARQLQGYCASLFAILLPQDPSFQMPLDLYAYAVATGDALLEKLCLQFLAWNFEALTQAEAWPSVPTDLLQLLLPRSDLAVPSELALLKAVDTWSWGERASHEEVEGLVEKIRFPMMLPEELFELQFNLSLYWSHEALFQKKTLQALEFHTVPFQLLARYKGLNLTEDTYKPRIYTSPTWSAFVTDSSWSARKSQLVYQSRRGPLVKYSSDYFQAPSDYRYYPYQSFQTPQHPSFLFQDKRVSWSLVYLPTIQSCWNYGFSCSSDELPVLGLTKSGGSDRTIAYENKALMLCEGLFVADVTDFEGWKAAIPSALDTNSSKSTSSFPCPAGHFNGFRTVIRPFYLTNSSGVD

## GAL3BP (preparation not stated) (from UniProt Q08380 19-585) (natural protein)
  suppression of Aβ40 and Aβ42 production in H4-APPwt cells by GAL3BP: 30%
